PMC10985318

Substrate: Nc1ncnc2c1ncn2[C@@H]1O[C@H](COP(=O)(O)OP(=O)(O)OP(=O)(O)O)[C@@H](O)[C@H]1O
Assay: purified protein
Details: MgATP, MgCl2 twice the ATP concentration, 25 mM Tris/HCl pH 8.0, 60 mM KCl, 25 °C, at saturating MgATP, non-Michaelis kinetics, local double-reciprocal fit of three consecutive concentrations

B1: V1ΔHC (S. cerevisiae V1-ATPase lacking subunits H and C) (Saccharomyces cerevisiae S288C) (protein)
chain 1: AGAIENARKEIKRISLEDHAESEYGAIYSVSGPVVIAENMIGCAMYELVKVGHDNLVGEVIRIDGDKATIQVYEETAGLTVGDPVLRTGKPLSVELGPGLMETIYDGIQRPLKAIKEESQSIYIPRGIDTPALDRTIKWQFTPGKFQVGDHISGGDIYGSVFENSLISSHKILLPPRSRGTITWIAPAGEYTLDEKILEVEFDGKKSDFTLYHTWPVRVPRPVTEKLSADYPLLTGQRVLDALFPCVQGGTTCIPGAFGCGKTVISQSLSKYSNSDAIIYVG
chain 2: CGERGNEMAEVLMEFPELYTEMSGTKEPIMKRTTLVANTSNMPVAAREASIYTGITLAEYFRDQGKNVSMIADSSSRWAEALREISGRLGEMPADQGFPAYLGAKLASFYERAGKAVALGSPDRTGSVSIVAAVSPAGGDFSDPVTTATLGITQVFWGLDKKLAQRKHFPSINTSVSYSKYTNVLNKFYDSNYPEFPVLRDRMKEILSNAEELEQVVQLVGKSALSDSDKITLDVATLIKEDFLQQNGYSTYDAFCPIWKTFDMMRAFISYHDEAQKAVANGANWSKLADSTGDVKHAVSSSKFFEPSRGEKEVHGEFEKLLSTMQERFAESTD
chain 3: VLSDKELFAINKKAVEQGFNVKPRLNYNTVSGVNGPLVILEKVKFPRYNEIVNLTLPDGTVRQGQVLEIRGDRAIVQVFEGTSGIDVKKTTVEFTGESLRIPVSEDMLGRIFDGSGRPIDNGPKVFAEDYLDINGSPINPYARIYPEEMISTGVSAIDTMNSIARGQKIPIFSASGLPHNEIAAQICRQAGLVRPTKDVHDGHEENFSIVFAAMGVNLETARFFKQDFEENGSLERTSLFLNLANDPTIERIITPRLALTTAEYLAYQTERHVLTILTDMSSYADALREVSAAREEVPGRRGYPGYMYTDLSTIYERAGRVEGRNGSITQIPILTMPNDDITHPIPDLTGYITEGQIFVDRQLHNKGIYPPINVLPSLSRLMKSAIGEGMTRKDHGDVSNQLYAKYAIGKDAAAMKAVVGEEALSIEDKLSLEFLEKFEKTFITQGAYEDRTVFESLDQAWSLLRIYPKEMLNRISPKILDEFYDRARDDADEDEEDPDTRSSGKKKDASQEESLI
  Km: 41.7 µM
  kcat: 9.6 s⁻¹
